US20230183328A1

How the values were obtained:
CD32a [1] = target: CD32a (UniProt P12318); experiment: CD32a binding assay; formulation F13, initial
CD32a [2] = target: CD32a (UniProt P12318); experiment: CD32a binding assay; formulation F13, 5°C/2M
CD32a [3] = target: CD32a (UniProt P12318); experiment: CD32a binding assay; formulation F18, 25°C dark/7 D
[4] = target: antigen of the Antigen binding ELISA (not named; BAN2401 is described as binding human Aβ protofibrils) (UniProt P05067); experiment: antigen binding ELISA; formulation F0, 25°C/1M
CD32a [5] = target: CD32a (UniProt P12318); experiment: CD32a binding assay; formulation F15, freeze-thaw 3 cycles
[6] = target: antigen of the Antigen binding ELISA (not named; BAN2401 is described as binding human Aβ protofibrils) (UniProt P05067); experiment: antigen binding ELISA; formulation F18, 25°C dark/7 D
[7] = target: antigen of the Antigen binding ELISA (not named; BAN2401 is described as binding human Aβ protofibrils) (UniProt P05067); experiment: antigen binding ELISA; formulation F13, 25°C/2M
[8] = target: antigen of the Antigen binding ELISA (not named; BAN2401 is described as binding human Aβ protofibrils) (UniProt P05067); experiment: antigen binding ELISA; formulation F0, 5°C/2M
[9] = target: antigen of the Antigen binding ELISA (not named; BAN2401 is described as binding human Aβ protofibrils) (UniProt P05067); experiment: antigen binding ELISA; formulation F13, 25°C/1M
[10] = target: antigen of the Antigen binding ELISA (not named; BAN2401 is described as binding human Aβ protofibrils) (UniProt P05067); experiment: antigen binding ELISA; formulation F15, 25°C dark/7 D
[11] = target: antigen of the Antigen binding ELISA (not named; BAN2401 is described as binding human Aβ protofibrils) (UniProt P05067); experiment: antigen binding ELISA; formulation F18, 5°C/2M
[12] = target: antigen of the Antigen binding ELISA (not named; BAN2401 is described as binding human Aβ protofibrils) (UniProt P05067); experiment: antigen binding ELISA; formulation F13, 5°C/2M
[13] = target: antigen of the Antigen binding ELISA (not named; BAN2401 is described as binding human Aβ protofibrils) (UniProt P05067); experiment: antigen binding ELISA; formulation F15, freeze-thaw 3 cycles
CD32a [14] = target: CD32a (UniProt P12318); experiment: CD32a binding assay; formulation F15, 5°C/2M
CD32a [15] = target: CD32a (UniProt P12318); experiment: CD32a binding assay; formulation F0, 25°C/1M
[16] = target: antigen of the Antigen binding ELISA (not named; BAN2401 is described as binding human Aβ protofibrils) (UniProt P05067); experiment: antigen binding ELISA; formulation F15, 5°C/2M
[17] = target: antigen of the Antigen binding ELISA (not named; BAN2401 is described as binding human Aβ protofibrils) (UniProt P05067); experiment: antigen binding ELISA; formulation F18, 25°C/1M
CD32a [18] = target: CD32a (UniProt P12318); experiment: CD32a binding assay; formulation F18, freeze-thaw 3 cycles
[19] = target: antigen of the Antigen binding ELISA (not named; BAN2401 is described as binding human Aβ protofibrils) (UniProt P05067); experiment: antigen binding ELISA; formulation F15, initial
[20] = target: antigen of the Antigen binding ELISA (not named; BAN2401 is described as binding human Aβ protofibrils) (UniProt P05067); experiment: antigen binding ELISA; formulation F17, 5°C/2M
[21] = target: antigen of the Antigen binding ELISA (not named; BAN2401 is described as binding human Aβ protofibrils) (UniProt P05067); experiment: antigen binding ELISA; formulation F15, 25°C/1M
CD32a [22] = target: CD32a (UniProt P12318); experiment: CD32a binding assay; formulation F17, initial
[23] = target: antigen of the Antigen binding ELISA (not named; BAN2401 is described as binding human Aβ protofibrils) (UniProt P05067); experiment: antigen binding ELISA; formulation F18, freeze-thaw 3 cycles
CD32a [24] = target: CD32a (UniProt P12318); experiment: CD32a binding assay; formulation F18, 5°C/2M
CD32a [25] = target: CD32a (UniProt P12318); experiment: CD32a binding assay; formulation F17, 25°C/2M
CD32a [26] = target: CD32a (UniProt P12318); experiment: CD32a binding assay; formulation F15, 25°C/1M
CD32a [27] = target: CD32a (UniProt P12318); experiment: CD32a binding assay; formulation F0, initial
CD32a [28] = target: CD32a (UniProt P12318); experiment: CD32a binding assay; formulation F15, initial
[29] = target: antigen of the Antigen binding ELISA (not named; BAN2401 is described as binding human Aβ protofibrils) (UniProt P05067); experiment: antigen binding ELISA; formulation F17, initial
CD32a [30] = target: CD32a (UniProt P12318); experiment: CD32a binding assay; formulation F17, 5°C/2M
CD32a [31] = target: CD32a (UniProt P12318); experiment: CD32a binding assay; formulation F13, 25°C/1M
CD32a [32] = target: CD32a (UniProt P12318); experiment: CD32a binding assay; formulation F18, initial
CD32a [33] = target: CD32a (UniProt P12318); experiment: CD32a binding assay; formulation F17, 25°C/1M
CD32a [34] = target: CD32a (UniProt P12318); experiment: CD32a binding assay; formulation F0, 25°C/2M
[35] = target: antigen of the Antigen binding ELISA (not named; BAN2401 is described as binding human Aβ protofibrils) (UniProt P05067); experiment: antigen binding ELISA; formulation F13, initial
CD32a [36] = target: CD32a (UniProt P12318); experiment: CD32a binding assay; formulation F15, 25°C/2M
CD32a [37] = target: CD32a (UniProt P12318); experiment: CD32a binding assay; formulation F18, 25°C/2M
[38] = target: antigen of the Antigen binding ELISA (not named; BAN2401 is described as binding human Aβ protofibrils) (UniProt P05067); experiment: antigen binding ELISA; formulation F17, 25°C/2M
[39] = target: antigen of the Antigen binding ELISA (not named; BAN2401 is described as binding human Aβ protofibrils) (UniProt P05067); experiment: antigen binding ELISA; formulation F15, 25°C/2M
[40] = target: antigen of the Antigen binding ELISA (not named; BAN2401 is described as binding human Aβ protofibrils) (UniProt P05067); experiment: antigen binding ELISA; formulation F18, 25°C 1000 lx/7 D
[41] = target: antigen of the Antigen binding ELISA (not named; BAN2401 is described as binding human Aβ protofibrils) (UniProt P05067); experiment: antigen binding ELISA; formulation F0, 25°C/2M
CD32a [42] = target: CD32a (UniProt P12318); experiment: CD32a binding assay; formulation F18, 25°C/1M
[43] = target: antigen of the Antigen binding ELISA (not named; BAN2401 is described as binding human Aβ protofibrils) (UniProt P05067); experiment: antigen binding ELISA; formulation F0, initial
CD32a [44] = target: CD32a (UniProt P12318); experiment: CD32a binding assay; formulation F18, 25°C 1000 lx/7 D
[45] = target: antigen of the Antigen binding ELISA (not named; BAN2401 is described as binding human Aβ protofibrils) (UniProt P05067); experiment: antigen binding ELISA; formulation F18, initial
CD32a [46] = target: CD32a (UniProt P12318); experiment: CD32a binding assay; formulation F0, 25°C/1M; remark: listed apart in the source
CD32a [47] = target: CD32a (UniProt P12318); experiment: CD32a binding assay; formulation F15, 25°C 1000 lx/7 D
CD32a [48] = target: CD32a (UniProt P12318); experiment: CD32a binding assay; formulation F13, 25°C/2M
CD32a [49] = target: CD32a (UniProt P12318); experiment: CD32a binding assay; formulation F0, 5°C/2M
CD32a [50] = target: CD32a (UniProt P12318); experiment: CD32a binding assay; formulation F18, initial; remark: listed apart in the source
[51] = target: antigen of the Antigen binding ELISA (not named; BAN2401 is described as binding human Aβ protofibrils) (UniProt P05067); experiment: antigen binding ELISA; formulation F15, 25°C 1000 lx/7 D
[52] = target: antigen of the Antigen binding ELISA (not named; BAN2401 is described as binding human Aβ protofibrils) (UniProt P05067); experiment: antigen binding ELISA; formulation F17, 25°C/1M
[53] = target: antigen of the Antigen binding ELISA (not named; BAN2401 is described as binding human Aβ protofibrils) (UniProt P05067); experiment: antigen binding ELISA; formulation F18, 25°C/2M
CD32a [54] = target: CD32a (UniProt P12318); experiment: CD32a binding assay; formulation F15, 25°C dark/7 D

Chain of CD32a (P12318 36-218): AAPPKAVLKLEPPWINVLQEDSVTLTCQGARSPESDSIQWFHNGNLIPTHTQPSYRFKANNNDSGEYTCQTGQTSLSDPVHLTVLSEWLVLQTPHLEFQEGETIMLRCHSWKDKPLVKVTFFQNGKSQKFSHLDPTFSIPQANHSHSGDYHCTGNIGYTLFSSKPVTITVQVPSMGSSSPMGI

BAN2401 (antibody)
FcR (Binding assay (CD32a)) (CD32a [1]): 101%
FcR (Binding assay (CD32a)) (CD32a [2]): 100%
FcR (Binding assay (CD32a)) (CD32a [3]): 105%
ELISA (Antigen binding ELISA) [4]: 103%
FcR (Binding assay (CD32a)) (CD32a [5]): 108%
ELISA (Antigen binding ELISA) [6]: 105%
ELISA (Antigen binding ELISA) [7]: 107%
ELISA (Antigen binding ELISA) [8]: 103%
ELISA (Antigen binding ELISA) [9]: 104%
ELISA (Antigen binding ELISA) [10]: 107%
ELISA (Antigen binding ELISA) [11]: 118%
ELISA (Antigen binding ELISA) [12]: 104%
ELISA (Antigen binding ELISA) [13]: 108%
FcR (Binding assay (CD32a)) (CD32a [14]): 99%
FcR (Binding assay (CD32a)) (CD32a [15]): 95.5%
ELISA (Antigen binding ELISA) [16]: 123%
ELISA (Antigen binding ELISA) [17]: 97%
FcR (Binding assay (CD32a)) (CD32a [18]): 106%
ELISA (Antigen binding ELISA) [19]: 102%
ELISA (Antigen binding ELISA) [20]: 126%
ELISA (Antigen binding ELISA) [21]: 104%
FcR (Binding assay (CD32a)) (CD32a [22]): 117%
ELISA (Antigen binding ELISA) [23]: 104%
FcR (Binding assay (CD32a)) (CD32a [24]): 94.7%
FcR (Binding assay (CD32a)) (CD32a [25]): 105%
FcR (Binding assay (CD32a)) (CD32a [26]): 98.3%
FcR (Binding assay (CD32a)) (CD32a [27]): 91.7%
FcR (Binding assay (CD32a)) (CD32a [28]): 109%
ELISA (Antigen binding ELISA) [29]: 107%
FcR (Binding assay (CD32a)) (CD32a [30]): 103%
FcR (Binding assay (CD32a)) (CD32a [31]): 99.4%
FcR (Binding assay (CD32a)) (CD32a [32]): 92.4%
FcR (Binding assay (CD32a)) (CD32a [33]): 104%
FcR (Binding assay (CD32a)) (CD32a [34]): 93.5%
ELISA (Antigen binding ELISA) [35]: 109%
FcR (Binding assay (CD32a)) (CD32a [36]): 102%
FcR (Binding assay (CD32a)) (CD32a [37]): 92.9%
ELISA (Antigen binding ELISA) [38]: 102%
ELISA (Antigen binding ELISA) [39]: 96.9%
ELISA (Antigen binding ELISA) [40]: 109%
ELISA (Antigen binding ELISA) [41]: 91.8%
FcR (Binding assay (CD32a)) (CD32a [42]): 91.9%
ELISA (Antigen binding ELISA) [43]: 101%
FcR (Binding assay (CD32a)) (CD32a [44]): 109%
ELISA (Antigen binding ELISA) [45]: 108%
FcR (Binding assay (CD32a)) (CD32a [46]): 95.3%
FcR (Binding assay (CD32a)) (CD32a [47]): 118%
FcR (Binding assay (CD32a)) (CD32a [48]): 102%
FcR (Binding assay (CD32a)) (CD32a [49]): 93.8%
FcR (Binding assay (CD32a)) (CD32a [50]): 106%
ELISA (Antigen binding ELISA) [51]: 101%
ELISA (Antigen binding ELISA) [52]: 107%
ELISA (Antigen binding ELISA) [53]: 97.8%
FcR (Binding assay (CD32a)) (CD32a [54]): 104%
